Assay [1] has as its target T1, human IL-7Rα (CD127) on cells (human, UniProt P16871 21-459).
T1 chain: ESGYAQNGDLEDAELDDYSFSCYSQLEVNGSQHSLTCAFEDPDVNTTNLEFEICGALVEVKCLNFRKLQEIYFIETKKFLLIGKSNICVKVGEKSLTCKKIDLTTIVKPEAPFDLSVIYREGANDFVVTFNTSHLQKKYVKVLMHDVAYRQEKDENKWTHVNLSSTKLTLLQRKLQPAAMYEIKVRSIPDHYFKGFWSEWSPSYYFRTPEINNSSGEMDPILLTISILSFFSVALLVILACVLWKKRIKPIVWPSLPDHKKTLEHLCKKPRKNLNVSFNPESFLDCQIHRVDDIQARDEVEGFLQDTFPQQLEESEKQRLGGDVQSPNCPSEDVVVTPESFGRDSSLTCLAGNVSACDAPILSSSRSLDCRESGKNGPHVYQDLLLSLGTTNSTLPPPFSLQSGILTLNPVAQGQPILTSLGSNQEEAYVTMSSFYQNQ
The assay is described as follows: cell-based or functional assay.

Assay [2] has as its target T2, Fcγ (Val) (UniProt P08637 17-208). The assay is described as follows: SPR, ProteOn XPR36; antibody amine-coupled to GLM chip, receptor 8-2048 nM as analyte, equilibrium fit, pH 7.4. (In general: SPR reads the build-up and loss of mass on a sensor chip optically.)
Description: (§1) The work was carried out on the ProteOn XPR36 surface plasmon resonance machine (BioRad). The antibodies to be tested were coupled to a GLM biosensor chip by primary amine coupling. […] All binding sensograms were double referenced with a 0 nM injection (i.e. buffer alone). The data was fitted to the Equilibrium model inherent to the ProteOn analysis software.
Assay [3] addresses T3, Fcγ2a (His) (UniProt P12318 34-217).
T3 construct: also called Fc Gamma IIa, His form
T3 sequence (looked up): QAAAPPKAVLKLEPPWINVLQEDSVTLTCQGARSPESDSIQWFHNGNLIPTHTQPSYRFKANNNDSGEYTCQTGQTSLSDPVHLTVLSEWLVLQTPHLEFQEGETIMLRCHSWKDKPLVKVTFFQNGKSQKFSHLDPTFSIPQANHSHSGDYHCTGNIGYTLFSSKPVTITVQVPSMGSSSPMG
The assay is described as above.
Description: as §1

In the next assay the target is T4, Fcγ1 (UniProt P12314 16-288).
T4 construct: also called Fc Gamma I
The assay is described as above.

Assay [4] concerns the target T5, Fcγ3a (Phe) (UniProt P08637 17-208).
T5 construct: also called Fc Gamma IIIa, Phe form
The description is as above.
Description: as §1

The target in a further assay is T6, Fcγ2a (Arg) (UniProt P12318 34-217).
T6 construct: also called Fc Gamma IIa, Arg form
T6 sequence (looked up): T3 sequence (looked up) with H134R
The description is as above.

The target in a further assay is Cyno FcRn (cyno, UniProt Q8SPV9 24-297; Q8SPW0 21-119, limits assumed). The assay is described as follows: SPR, ProteOn XPR36; antibody amine-coupled to GLM chip, FcRn 8-2048 nM as analyte, equilibrium fit, pH 6.0.
In the next assay the target is T7, rat FcRn (rat, UniProt P13599 23-298; P07151 21-119, limits assumed).
T7 sequence (looked up) 1: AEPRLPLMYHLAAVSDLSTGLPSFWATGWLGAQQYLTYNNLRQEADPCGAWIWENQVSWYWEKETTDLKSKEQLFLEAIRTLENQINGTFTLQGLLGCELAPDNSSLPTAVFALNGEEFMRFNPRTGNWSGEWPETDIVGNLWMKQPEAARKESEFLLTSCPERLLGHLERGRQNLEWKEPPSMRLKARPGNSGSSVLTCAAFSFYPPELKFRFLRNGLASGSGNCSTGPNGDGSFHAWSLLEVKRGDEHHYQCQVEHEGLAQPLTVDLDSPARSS
T7 sequence (looked up) 2: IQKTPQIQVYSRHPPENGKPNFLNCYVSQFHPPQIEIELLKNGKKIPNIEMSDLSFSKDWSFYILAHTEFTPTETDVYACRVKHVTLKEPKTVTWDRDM
Described as above.

The target of the next assay is T8, Mouse FcRn (mouse, UniProt Q61559 22-297; P01887 21-119, limits assumed).
T8 sequence (looked up) 1: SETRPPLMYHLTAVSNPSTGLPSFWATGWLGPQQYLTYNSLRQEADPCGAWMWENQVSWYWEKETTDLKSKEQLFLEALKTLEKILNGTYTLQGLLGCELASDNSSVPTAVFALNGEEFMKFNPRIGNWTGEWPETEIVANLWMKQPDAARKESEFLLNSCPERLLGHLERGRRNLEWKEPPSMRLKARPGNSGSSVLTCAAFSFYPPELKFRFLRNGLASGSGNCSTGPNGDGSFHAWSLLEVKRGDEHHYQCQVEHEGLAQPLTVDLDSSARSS
T8 sequence (looked up) 2: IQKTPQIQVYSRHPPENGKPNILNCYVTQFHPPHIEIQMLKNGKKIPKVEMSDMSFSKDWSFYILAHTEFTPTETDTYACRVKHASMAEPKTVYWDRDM
The assay is described as above.

In another assay the target is Human FcRn (human, UniProt P55899 24-297; P61769 21-119, limits assumed). The assay is described as above.
Assay [5] has as its target T2, Fcγ (Val). The experiment in a line: SPR, ProteOn XPR36; antibody amine-coupled to GLM chip, receptor as analyte.
Description: as §1
Assay [6] has as its target T3, Fcγ2a (His). Described as above.
Description: as §1
The target of assay [7] is T5, Fcγ3a (Phe). Described as above.
Description: as §1

Positions count from the first letter of the chain named.

By Kd is commonly meant a measure of binding affinity in units of concentration. High values mean a looser complex, low ones a tighter complex.

T2 sequence (P08637 17-208 F176V): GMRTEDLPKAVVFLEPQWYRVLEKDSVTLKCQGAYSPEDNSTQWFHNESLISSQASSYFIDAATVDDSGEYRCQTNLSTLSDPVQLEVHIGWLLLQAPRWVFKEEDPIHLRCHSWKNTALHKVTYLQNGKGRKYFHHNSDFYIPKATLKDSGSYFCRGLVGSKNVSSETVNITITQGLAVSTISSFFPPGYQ
Human FcRn, sequence (P55899 24-297 limits assumed, chain 1 of 2): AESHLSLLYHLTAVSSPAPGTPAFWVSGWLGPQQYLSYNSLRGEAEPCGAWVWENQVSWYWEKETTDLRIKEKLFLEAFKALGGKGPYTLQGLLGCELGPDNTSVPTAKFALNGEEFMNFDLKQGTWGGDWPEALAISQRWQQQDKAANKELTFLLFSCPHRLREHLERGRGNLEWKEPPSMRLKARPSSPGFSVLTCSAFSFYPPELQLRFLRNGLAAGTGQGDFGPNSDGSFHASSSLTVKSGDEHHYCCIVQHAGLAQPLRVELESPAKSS
Human FcRn, sequence (P61769 21-119 limits assumed, chain 2 of 2): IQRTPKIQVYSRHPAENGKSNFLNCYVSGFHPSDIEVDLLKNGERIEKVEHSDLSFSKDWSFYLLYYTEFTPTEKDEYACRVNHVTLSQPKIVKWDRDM
T5 sequence (P08637 17-208): as the sequence (P08637 17-208 F176V) above, with V160F counted along it
T4 sequence (P12314 16-288): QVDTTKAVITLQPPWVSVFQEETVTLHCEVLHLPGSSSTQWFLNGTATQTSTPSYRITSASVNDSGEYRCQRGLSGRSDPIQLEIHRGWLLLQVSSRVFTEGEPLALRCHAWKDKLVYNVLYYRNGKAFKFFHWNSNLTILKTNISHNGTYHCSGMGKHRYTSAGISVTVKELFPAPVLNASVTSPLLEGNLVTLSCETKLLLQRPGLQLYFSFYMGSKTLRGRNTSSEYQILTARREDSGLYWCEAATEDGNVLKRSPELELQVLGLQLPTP
Description for Cyno FcRn: as §1
Description for Fcγ1: as §1
Description for Fcγ2a (Arg): as §1
Description for Human FcRn: as §1
Description for Mouse FcRn: as §1
Description for rat FcRn: as §1

B1: parental 1A11 monoclonal antibody (antibody, V domains shown)
VH: EVQLQQSGPELLKPGASMKISCKASGYSFTGYTMNWVKQSHGKNLEWIGLINPYNGVTSYNQKFKGKATLTVAKSSSTAYMELLSLTSEDSAVYYCARGDGNYWYFDVWGAGTTVTVSS
VL: EIVLTQSPAITAASLGQKVTITCSASSSVTYMHWYQQKSGTSPKPWIYEISKLASGVPVRFSGSGSGTSYSLTISSMEAEDAAIYYCQEWNYPYTFGGGTKLEIK
In the case of B1, the “IC50 of inhibition of IL-7 induced STAT5 phosphorylation in human PBMC (flow cytometry)” value in assay [1] came out at 0.088 µg/mL.

B2: 1A11 H3L4 (antibody, IgG1)
heavy: not shown
light: EIVLTQSPATLSLSPGERATLSCSASSSVTYMHWYQQKPGQAPRPLIYEISKLASGIPARFSGSGSGTDFTLTISSLEPEDFAVYYCQEWNYPYTFGGGTKVEIKRTVAAPSVFIFPPSDEQLKSGTASVVCLLNNFYPREAKVQWKVDNALQSGNSQESVTEQDSKDSTYSLSSTLTLSKADYEKHKVYACEVTHQGLSSPVTKSFNRGEC
notes: Humanised IgG1 kappa; also called BPC1142; anti-IL7R 1A11 H3L4; copies: 2 + 2
For B2, the Kd with Fcγ (Val) [2] was 319 nM; with Fcγ2a (His) [3] it was 1040 nM; in the assay with Fcγ1, 21.4 nM; with Fcγ3a (Phe) [4], 990 nM; with Fcγ2a (Arg) it was 1250 nM; with Cyno FcRn, 210 nM. For the same molecule, the Kd with rat FcRn turned out to be 145 nM; with Mouse FcRn it was 192 nM; with Human FcRn, 183 nM.

B3: 1A11 H3L4Fc (antibody)
heavy: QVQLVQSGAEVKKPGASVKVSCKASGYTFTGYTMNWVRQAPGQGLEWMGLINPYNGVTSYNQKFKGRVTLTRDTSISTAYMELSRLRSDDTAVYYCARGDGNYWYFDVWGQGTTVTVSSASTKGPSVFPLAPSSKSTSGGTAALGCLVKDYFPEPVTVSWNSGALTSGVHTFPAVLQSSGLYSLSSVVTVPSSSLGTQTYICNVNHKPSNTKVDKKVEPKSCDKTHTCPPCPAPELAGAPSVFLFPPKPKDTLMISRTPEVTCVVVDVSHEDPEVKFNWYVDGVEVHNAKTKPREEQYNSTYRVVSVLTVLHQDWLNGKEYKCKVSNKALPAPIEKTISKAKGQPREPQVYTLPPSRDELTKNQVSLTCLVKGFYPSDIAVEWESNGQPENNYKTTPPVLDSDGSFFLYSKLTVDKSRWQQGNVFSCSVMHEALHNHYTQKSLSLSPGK
light: B2 light
notes: also called Fc-disabled anti-IL7R mAb; Fc-disabled 1A11 H3L4; copies: 2 + 2
As for B3, the binding result with Fcγ (Val) [5], in the assay with Fcγ2a (His) [6] and in the assay with Fcγ3a (Phe) [7] was “no binding (tested: up to 2048 nM receptor)” throughout. Besides, the Kd is 248 nM with Cyno FcRn, 163 nM with rat FcRn, 207 nM with Mouse FcRn and 158 nM with Human FcRn.

For the origin of these results see patent US20110200585A1 (GlaxoSmithKline, published 2011).
